# Results reported in publication PMC4161474.
# Legend:
# Assay in all cases: co-IP; HEK293 cells co-transfected with Flag-HBx wt or alanine substitution mutants and His-myc-Spin1; precipitated with anti-Flag antibodies, anti-Myc and anti-Flag blots quantified with the Odyssey system; signal normalised to HBx in the IP/HBx in the input, Flag-HBx wt set to 100% (Figure 1C)
# [1] = target: Flag-HBx Cm13, clustered alanine substitution mutant (Hepatitis B virus) (UniProt P69713)
# [2] = target: Flag-HBx Cm5, clustered alanine substitution mutant (Hepatitis B virus) (UniProt P69713)
# [3] = target: Flag-HBx Cm7, clustered alanine substitution mutant (Hepatitis B virus) (UniProt P69713)
# [4] = target: Flag-HBx Cm8, clustered alanine substitution mutant (Hepatitis B virus) (UniProt P69713)
# [5] = target: Flag-HBx Cm9, clustered alanine substitution mutant (Hepatitis B virus) (UniProt P69713)
substance,measurement,setting,value
His-Myc-Spindlin1 (from UniProt Q9Y657 1-262) (natural protein),percent of Spindlin1 immunoprecipitated (Flag-HBx wt = 100%),[1],29%
same,percent of Spindlin1 immunoprecipitated (Flag-HBx wt = 100%),[2],10%
same,percent of Spindlin1 immunoprecipitated (Flag-HBx wt = 100%),[3],13%
same,percent of Spindlin1 immunoprecipitated (Flag-HBx wt = 100%),[4],52%
same,percent of Spindlin1 immunoprecipitated (Flag-HBx wt = 100%),[5],28%
